± gives the uncertainty stated by the source.
Assay: abundance fitness (aPCA) (normalised: wild type 0, dead -1); higher = more abundant; growth selection in yeast, the domain comes from the species named
Settings: Homo sapiens

| Substance | abundance fitness |
| --- | --- |
| NEDD4-like E3 ubiquitin-protein ligase WWP2 P488N, O00308 | 0.021 ± 0.051 |
| NEDD4-like E3 ubiquitin-protein ligase WWP2 Y461E, O00308 | -0.577 ± 0.071 |
| NEDD4-like E3 ubiquitin-protein ligase WWP2 Q485C, O00308 | -0.071 ± 0.053 |
| NEDD4-like E3 ubiquitin-protein ligase WWP2 P488L, O00308 | -0.063 ± 0.038 |
| NEDD4-like E3 ubiquitin-protein ligase WWP2 R476Q, O00308 | -0.406 ± 0.074 |
| NEDD4-like E3 ubiquitin-protein ligase WWP2 F462M, O00308 | -0.66 ± 0.08 |
| Heterogeneous nuclear ribonucleoprotein U-like protein 2 Q31D, Q1KMD3 | -0.194 ± 0.11 |
| NEDD4-like E3 ubiquitin-protein ligase WWP2 P447T, O00308 | -0.541 ± 0.067 |
| Transcription factor SOX-11 R82I, P35716 | 0.406 ± 0.048 |
| NEDD4-like E3 ubiquitin-protein ligase WWP2 G482H, O00308 | -0.019 ± 0.076 |
| NEDD4-like E3 ubiquitin-protein ligase WWP2 P448L, O00308 | -0.013 ± 0.038 |
| NEDD4-like E3 ubiquitin-protein ligase WWP2 M440S, O00308 | -0.102 ± 0.086 |
| NEDD4-like E3 ubiquitin-protein ligase WWP2 A490H, O00308 | -0.316 ± 0.078 |
| NEDD4-like E3 ubiquitin-protein ligase WWP2 S456C, O00308 | -0.01 ± 0.063 |
| NEDD4-like E3 ubiquitin-protein ligase WWP2 N466C, O00308 | -0.169 ± 0.048 |
| NEDD4-like E3 ubiquitin-protein ligase WWP2 P444D, O00308 | 0.148 ± 0.061 |
| NEDD4-like E3 ubiquitin-protein ligase WWP2 G458E, O00308 | -0.367 ± 0.063 |
| NEDD4-like E3 ubiquitin-protein ligase WWP2 R460L, O00308 | -0.088 ± 0.036 |
| NEDD4-like E3 ubiquitin-protein ligase WWP2 R468G, O00308 | -0.2 ± 0.033 |
| NEDD4-like E3 ubiquitin-protein ligase WWP2 R468E, O00308 | -0.14 ± 0.039 |
| Transcription factor SOX-11 Q70A, P35716 | -0.128 ± 0.065 |
| NEDD4-like E3 ubiquitin-protein ligase WWP2 E451Y, O00308 | -0.378 ± 0.071 |
| NEDD4-like E3 ubiquitin-protein ligase WWP2 P475H, O00308 | -0.813 ± 0.15 |

| Substance | abundance fitness |
| --- | --- |
| NEDD4-like E3 ubiquitin-protein ligase WWP2 S456E, O00308 | 0.017 ± 0.035 |
| NEDD4-like E3 ubiquitin-protein ligase WWP2 T455R, O00308 | -0.762 ± 0.038 |
| NEDD4-like E3 ubiquitin-protein ligase WWP2 G482V, O00308 | -0.108 ± 0.043 |
| NEDD4-like E3 ubiquitin-protein ligase WWP2 A445D, O00308 | 0.121 ± 0.078 |
| NEDD4-like E3 ubiquitin-protein ligase WWP2 V459W, O00308 | -0.18 ± 0.07 |
| NEDD4-like E3 ubiquitin-protein ligase WWP2 K473S, O00308 | -0.128 ± 0.055 |
| NEDD4-like E3 ubiquitin-protein ligase WWP2 E451S, O00308 | -0.072 ± 0.032 |
| NEDD4-like E3 ubiquitin-protein ligase WWP2 Y461A, O00308 | -0.669 ± 0.072 |
| NEDD4-like E3 ubiquitin-protein ligase WWP2 Y461V, O00308 | -0.529 ± 0.055 |
| NEDD4-like E3 ubiquitin-protein ligase WWP2 P448W, O00308 | -0.109 ± 0.062 |
| NEDD4-like E3 ubiquitin-protein ligase WWP2 Y461K, O00308 | -0.621 ± 0.072 |
| NEDD4-like E3 ubiquitin-protein ligase WWP2 K473A, O00308 | -0.111 ± 0.045 |
| NEDD4-like E3 ubiquitin-protein ligase WWP2 T455W, O00308 | -0.866 ± 0.1 |
| NEDD4-like E3 ubiquitin-protein ligase WWP2 K473E, O00308 | -0.059 ± 0.035 |
| NEDD4-like E3 ubiquitin-protein ligase WWP2 Y491A, O00308 | -0.015 ± 0.059 |
| NEDD4-like E3 ubiquitin-protein ligase WWP2 G478K, O00308 | 0.061 ± 0.067 |
| NEDD4-like E3 ubiquitin-protein ligase WWP2 D492C, O00308 | -0.146 ± 0.061 |
| NEDD4-like E3 ubiquitin-protein ligase WWP2 V463K, O00308 | -0.466 ± 0.062 |
| NEDD4-like E3 ubiquitin-protein ligase WWP2 T469D, O00308 | -0.257 ± 0.055 |
| NEDD4-like E3 ubiquitin-protein ligase WWP2 G478V, O00308 | -0.058 ± 0.047 |
| NEDD4-like E3 ubiquitin-protein ligase WWP2 Q442E, O00308 | 0.069 ± 0.04 |
| NEDD4-like E3 ubiquitin-protein ligase WWP2 L446V, O00308 | -0.29 ± 0.052 |
| NEDD4-like E3 ubiquitin-protein ligase WWP2 G478N, O00308 | -0.136 ± 0.068 |

| Substance | abundance fitness |
| --- | --- |
| NEDD4-like E3 ubiquitin-protein ligase WWP2 I441T, O00308 | 0.009 ± 0.04 |
| NEDD4-like E3 ubiquitin-protein ligase WWP2 P444Q, O00308 | 0.065 ± 0.068 |
| NEDD4-like E3 ubiquitin-protein ligase WWP2 T470E, O00308 | -0.218 ± 0.068 |
| NEDD4-like E3 ubiquitin-protein ligase WWP2 S487C, O00308 | -0.032 ± 0.04 |
| NEDD4-like E3 ubiquitin-protein ligase WWP2 I441K, O00308 | 0.052 ± 0.04 |
| NEDD4-like E3 ubiquitin-protein ligase WWP2 G478Q, O00308 | 0.038 ± 0.048 |
| NEDD4-like E3 ubiquitin-protein ligase WWP2 Q485M, O00308 | -0.038 ± 0.048 |
| NEDD4-like E3 ubiquitin-protein ligase WWP2 E443T, O00308 | -0.248 ± 0.085 |
| NEDD4-like E3 ubiquitin-protein ligase WWP2 P447Q, O00308 | -0.289 ± 0.07 |
| NEDD4-like E3 ubiquitin-protein ligase WWP2 W450D, O00308 | -0.552 ± 0.041 |
| NEDD4-like E3 ubiquitin-protein ligase WWP2 N466G, O00308 | -0.184 ± 0.051 |
| NEDD4-like E3 ubiquitin-protein ligase WWP2 G482P, O00308 | -0.032 ± 0.07 |
| Heterogeneous nuclear ribonucleoprotein U-like protein 2 E35A, Q1KMD3 | 0.036 ± 0.052 |
| NEDD4-like E3 ubiquitin-protein ligase WWP2 A445L, O00308 | 0 ± 0.039 |
| NEDD4-like E3 ubiquitin-protein ligase WWP2 P448V, O00308 | 0.023 ± 0.055 |
| NEDD4-like E3 ubiquitin-protein ligase WWP2 S487D, O00308 | 0.013 ± 0.036 |
| NEDD4-like E3 ubiquitin-protein ligase WWP2 R468A, O00308 | -0.157 ± 0.035 |
| NEDD4-like E3 ubiquitin-protein ligase WWP2 R460Y, O00308 | -0.558 ± 0.12 |
| NEDD4-like E3 ubiquitin-protein ligase WWP2 D474W, O00308 | -0.253 ± 0.048 |
| NEDD4-like E3 ubiquitin-protein ligase WWP2 D492P, O00308 | -0.249 ± 0.076 |
| NEDD4-like E3 ubiquitin-protein ligase WWP2 S456P, O00308 | -0.062 ± 0.062 |
| NEDD4-like E3 ubiquitin-protein ligase WWP2 P475N, O00308 | -0.941 ± 0.13 |
| NEDD4-like E3 ubiquitin-protein ligase WWP2 Y491C, O00308 | -0.011 ± 0.049 |

| Substance | abundance fitness |
| --- | --- |
| NEDD4-like E3 ubiquitin-protein ligase WWP2 K453G, O00308 | -0.328 ± 0.052 |
| NEDD4-like E3 ubiquitin-protein ligase WWP2 M452D, O00308 | -0.12 ± 0.056 |
| NEDD4-like E3 ubiquitin-protein ligase WWP2 K484A, O00308 | -0.073 ± 0.058 |
| NEDD4-like E3 ubiquitin-protein ligase WWP2 W450F, O00308 | -0.026 ± 0.075 |
| NEDD4-like E3 ubiquitin-protein ligase WWP2 D464E, O00308 | -0.372 ± 0.047 |
| NEDD4-like E3 ubiquitin-protein ligase WWP2 S456G, O00308 | -0.043 ± 0.046 |
| NEDD4-like E3 ubiquitin-protein ligase WWP2 E451L, O00308 | -0.415 ± 0.053 |
| Transcription factor SOX-11 S60A, P35716 | 0.15 ± 0.097 |
| NEDD4-like E3 ubiquitin-protein ligase WWP2 R460I, O00308 | -0.036 ± 0.074 |
| NEDD4-like E3 ubiquitin-protein ligase WWP2 E457T, O00308 | -0.081 ± 0.067 |
| NEDD4-like E3 ubiquitin-protein ligase WWP2 H465Y, O00308 | -0.386 ± 0.064 |
| NEDD4-like E3 ubiquitin-protein ligase WWP2 G486E, O00308 | 0.044 ± 0.042 |
| NEDD4-like E3 ubiquitin-protein ligase WWP2 N466D, O00308 | -0.377 ± 0.064 |
| NEDD4-like E3 ubiquitin-protein ligase WWP2 M440V, O00308 | -0.114 ± 0.079 |
| NEDD4-like E3 ubiquitin-protein ligase WWP2 F479T, O00308 | 0.025 ± 0.061 |
| NEDD4-like E3 ubiquitin-protein ligase WWP2 D464P, O00308 | -0.921 ± 0.15 |
| NEDD4-like E3 ubiquitin-protein ligase WWP2 P447R, O00308 | -0.316 ± 0.04 |
| NEDD4-like E3 ubiquitin-protein ligase WWP2 F462Q, O00308 | -1.02 ± 0.16 |
| NEDD4-like E3 ubiquitin-protein ligase WWP2 P477Y, O00308 | -0.145 ± 0.063 |
| Transcription factor SOX-11 R82M, P35716 | 0.124 ± 0.12 |

Source: the Human Domainome abundance scans (Beltran et al. 2025)
